“Also recorded” adds a separate entry of the source.
Columns and labels:
Sheep PBMC = assay: Immune cell proliferation, tetrazolium colorimetric reading (Stimulation Index)
Calf PBMC = assay: as above
Trout HK Cells = assay: as above; format: cell-based
human immune cells = assay: Leukocyte mitogenic response (BrdU-based ELISA, stimulation index); format: cell-based; details: purified lectin at mitogen concentration (5-40 μg/mL), day 4
Mouse Splenocytes = assay: Immune cell proliferation, tetrazolium colorimetric reading (Stimulation Index); format: cell-based, BALB/c mice
equine immune cells = assay: Leukocyte mitogenic response (BrdU-based ELISA, stimulation index); format: cell-based; details: purified lectin at mitogen concentration (5-40 μg/mL), day 4
Swine PBMC = assay: Immune cell proliferation, tetrazolium colorimetric reading (Stimulation Index)
bovine immune cells = assay: Leukocyte mitogenic response (BrdU-based ELISA, stimulation index); format: cell-based; details: purified lectin at mitogen concentration (5-40 μg/mL), day 4
salmon immune cells = assay: as above; format: cell-based; details: purified lectin at mitogen concentration (5-40 μg/mL), day 4
Chicken PBMC = assay: Immune cell proliferation, tetrazolium colorimetric reading (Stimulation Index)
feline immune cells = assay: Leukocyte mitogenic response (BrdU-based ELISA, stimulation index); format: cell-based; details: purified lectin at mitogen concentration (5-40 μg/mL), day 4
Feline PBMC = assay: Immune cell proliferation, tetrazolium colorimetric reading (Stimulation Index)
swine immune cells = assay: Leukocyte mitogenic response (BrdU-based ELISA, stimulation index); format: cell-based; details: purified lectin at mitogen concentration (5-40 μg/mL), day 4
Excerpt: (§1) Lymphocytes are a representative immune system prototypic cell that may be used in in vitro assays for immunological effects of lectins, saponins and other components of natural plant or animal products. Exemplary lymphocytes for representative target species may be obtained and used in the Examples disclosed herein. The effects of various compositions on lymphocyte proliferation is examined using a standard tetrazolium based colorimetric assay (MTT). An Alamar blue-based colorimetric assay gave equivalent results to [^3H]-thymidine incorporation assay. The MTT colorimetric assay has also been used in lymphocyte proliferation assays using chicken splenocytes. These and other known assays may be utilized in the methods disclosed herein.
(§2) In one non-limiting example, cells from anterior fish kidney are obtained by forcing the aseptically removed tissue through a 100 μm cell strainer into L-15 medium supplemented with 2% fetal bovine serum (FBS), 100 U mL^−1 penicillin, 100 μg mL^−1 streptomycin, and 10 U mL^−1 sodium heparin (Processing medium, PM). The single-cell suspension is removed from the settled tissue fragments and cells are pelleted by centrifugation at 500×g for 10 min at 4° C. […]
(§3) The number of viable kidney or blood leukocytes isolated from each fish is determined by trypan blue exclusion (0.1% trypan blue in PM), and the cells are pelleted as described above.
(§4) Mitogen concentrations used to stimulate the isolated leukocytes are as follows: 10 μg mL^−1 SBA, 10 μg mL^−1 PHA-E or PHA-L, 5 μg mL^−1 LBL, 20 μg mL^−1 LCA or LOA, 10 μg mL^−1 ConA, 40 ug mL^−1 PSA and 5 μg mL^−1 PNA. […] The mitogenic response is measured on the fourth day of incubation post-mitogen stimulation using a BrdU-based ELISA at room temperature as described (Gauthier, D. T. 2003). Stimulation index (SI) values are calculated as the replicate mean optical density for a given set of mitogen-treated leukocytes divided by the replicate mean optical density of the associated mitogen free (control) leukocytes. […]

shrimp immune cells = assay: as above; format: cell-based; details: purified lectin at mitogen concentration (5-40 μg/mL), day 4
canine immune cells = assay: as above; format: cell-based; details: purified lectin at mitogen concentration (5-40 μg/mL), day 4
trout immune cells = assay: as above; format: cell-based; details: purified lectin at mitogen concentration (5-40 μg/mL), day 4
Excerpt: as §1, §2, §3, §4

Molecule	lowest concentration of lectins required for stimulation response above background (Sheep PBMC) [µg/mL]	lowest concentration of lectins required for stimulation response above background (Calf PBMC) [µg/mL]	lowest concentration of lectins required for stimulation response above background (Trout HK Cells)	Immunomodulatory effect (stimulation index class) (human immune cells)	lowest concentration of lectins required for stimulation response above background (Mouse Splenocytes)	Immunomodulatory effect (stimulation index class) (equine immune cells)	lowest concentration of lectins required for stimulation response above background (Swine PBMC) [µg/mL]	Immunomodulatory effect (stimulation index class) (bovine immune cells)	Immunomodulatory effect (stimulation index class) (salmon immune cells)	lowest concentration of lectins required for stimulation response above background (Chicken PBMC)	Immunomodulatory effect (stimulation index class) (feline immune cells)	lowest concentration of lectins required for stimulation response above background (Feline PBMC) [μg/ml ug/ml]	Immunomodulatory effect (stimulation index class) (swine immune cells)	Immunomodulatory effect (stimulation index class) (shrimp immune cells)	Immunomodulatory effect (stimulation index class) (canine immune cells)	Immunomodulatory effect (stimulation index class) (trout immune cells)
SBA: Soybean (Glycine max) Lectin	50	50	refractory; also recorded: Negative	++ (between 5 and 9.9 is assigned a value of ++ (moderate mitogen))	Negative	−− (<1 is assigned a value of −− (anti-mitogenic))	50	+ (between 1 and 4.9 is assigned a value of + (weak mitogen))	+++ (≧10 is assigned a value of +++ (strong mitogen))	Negative	+ (between 1 and 4.9 is assigned a value of + (weak mitogen))	1	−− (<1 is assigned a value of −− (anti-mitogenic))			
PSA: small pea (Pisum sativum) lectin (protein, UniProt P02867 31-217; P02867 218-275, looked up) Lectin beta chain: TETTSFLITKFSPDQQNLIFQGDGYTTKEKLTLTKAVKNTVGRALYSSPIHIWDRETGNVANFVTSFTFVINAPNSYNVADGFTFFIAPVDTKPQTGGGYLGVFNSAEYDKTTQTVAVEFDTFYNAAWDPSNRDRHIGIDVNSIKSVNTKSWKLQNGEEANVVIAFNAATNVLTVSLTYPNSLEEEN Lectin alpha chain: VTSYTLSDVVSLKDVVPEWVRIGFSATTGAEYAAHEVLSWSFHSELSGTSSSKQAADA				++ (between 5 and 9.9 is assigned a value of ++ (moderate mitogen))		+ (between 1 and 4.9 is assigned a value of + (weak mitogen))		+++ (≧10 is assigned a value of +++ (strong mitogen))	−− (<1 is assigned a value of −− (anti-mitogenic))		−− (<1 is assigned a value of −− (anti-mitogenic))			+++ (≧10 is assigned a value of +++ (strong mitogen))	+ (between 1 and 4.9 is assigned a value of + (weak mitogen))	+++ (≧10 is assigned a value of +++ (strong mitogen))
PNA: peanut (Arachis hypogaea) lectin (protein, UniProt P02872 24-273, looked up) Galactose-binding lectin: AETVSFNFNSFSEGNPAINFQGDVTVLSNGNIQLTNLNKVNSVGRVLYAMPVRIWSSATGNVASFLTSFSFEMKDIKDYDPADGIIFFIAPEDTQIPAGSIGGGTLGVSDTKGAGHFVGVEFDTYSNSEYNDPPTDHVGIDVNSVDSVKTVPWNSVSGAVVKVTVIYDSSTKTLSVAVTNDNGDITTIAQVVDLKAKLPERVKFGFSASGSLGGRQIHLIRSWSFTSTLITTTRRSIDNNEKKIMNMASA				+ (between 1 and 4.9 is assigned a value of + (weak mitogen))		++ (between 5 and 9.9 is assigned a value of ++ (moderate mitogen))		+ (between 1 and 4.9 is assigned a value of + (weak mitogen))	+++ (≧10 is assigned a value of +++ (strong mitogen))		+++ (≧10 is assigned a value of +++ (strong mitogen))			−− (<1 is assigned a value of −− (anti-mitogenic))	++ (between 5 and 9.9 is assigned a value of ++ (moderate mitogen))	−− (<1 is assigned a value of −− (anti-mitogenic))
